The target in test [1] is Human Talin 1 R1R2-17b (residues 482-786 + additional 17 residues) (human) (UniProt Q9Y490). In words: SEC.
The target of test [2] is Human Talin 1 R1R2-WT (residues 482-786) (human, UniProt Q9Y490 482-786). The test is described as follows: NMR titration.

“And” between values parts separate entries of the source, which are not always exact repeats. Equal entries are not always repeated.

In the case of “Vinculin domain 1 (VD1) (from UniProt P18206 1-258) (domain or fragment)”, the stoichiometry N (vinculin per talin) in test [1] is 2 and 3.

On to SEDIDQMFSTLLGEMDLLTQSLGVDTC [RIAM peptide (residues 4-30)], for which the binding result in test [2] is “binds”.

For the origin of these results see paper doi:10.1101/2022.09.06.506802 (bioRxiv, 2022).
